{"source": "patent US20220380801A1", "about": "“TRIPARTITE SYSTEMS FOR PROTEIN DIMERIZATION AND METHODS OF USE” (priority 2019, published 2022)", "molecules": {"B1": {"name": "PRSIM_23: Tn3 protein specific for HCV NS3/4A PR (S139A):simeprevir complex, SEQ ID NO: 5 (protein)", "chain": "RLDAPSQIEVKDVTDTTALITWVDPRYDDIWWFELTYGIKDVPGDRTTIKLYLNDPYYSIGNLKPDTEYEVSLISYTGDSYSRSGSNPAKITFKTGL", "modifications": "PRSIM_23"}}, "key": {"[1]": {"tested_on": "HCV NS3/4A PR K136D", "assay": "Biacore 8K binding kinetics, mutant protease to PRSIM_23", "design": "species or system Hepatitis C virus subtype 1a", "procedure": "(§1) The scFv and Tn3 PRSIM binding molecules were covalently immobilised to a CM5 chip surface using standard amine coupling techniques at a concentration of 1 μg/ml in 10 mM sodium acetate pH 4.5.\n(§2) The HCV NS3/4A PR (S139A), or BSA control, was diluted 1:4 (1.25-20 nM)±10 nM simeprevir in 10 mM Hepes pH 7.4, 150 mM NaCl, 0.05% Surfactant P20, 0.01% DMSO, ensuring constant simeprevir and DMSO concentration. The samples were flowed over the chip at 50 μl/min using single cycle kinetics, with 120 sec association and 600 sec dissociation. The chip surface was regenerated with two 20 sec pulses of 10 mM Glycine-HCl pH 3.0. The final sensorgrams were analysed using the Biacore 8K Evaluation Software and the affinity constant KD was determined using a 1:1 binding model. The same method was used for measuring the affinity of the HCV NS3/4A PR mutants for PRSIM_23 with minor deviations. The mutants were diluted 1:4 (2.5-40 nM)±simeprevir in 10 mM Hepes pH 7.4, 150 mM NaCl, 0.05% Surfactant P20, 0.08% DMSO, ensuring constant simeprevir and DMSO concentration. The samples were flowed over the chip at 50 μl/min using single cycle kinetics, with 180 sec association and 600 sec dissociation."}, "[2]": {"tested_on": "HCV NS3/4A PR K136N", "assay": "Biacore 8K binding kinetics, mutant protease to PRSIM_23", "design": "species or system Hepatitis C virus subtype 1a", "procedure": "as §1, §2"}, "[3]": {"tested_on": "HCV NS3/4A PR D168E", "assay": "Biacore 8K binding kinetics, mutant protease to PRSIM_23", "design": "species or system Hepatitis C virus subtype 1a", "details": "20 nM simeprevir", "procedure": "as §1, §2"}, "[4]": {"tested_on": "NanoLuc-PEST reporter in HEK293 cells", "assay": "Transcriptional regulation assay (split transcription factor), NanoLuc-PEST reporter", "type": "cell-based, human", "from_the_text": "The iDimerize regulated transcription system (Takara) was used to test the ability of PRSIM-based CIDs to regulate gene expression. […] The DBD and AD are separately fused to the two protein components of a CID such that, only in the presence of the small molecule inducer, the AD is brought into close proximity to the DBD, recruiting the transcription machinery to a promoter harbouring the DBD recognition sites. The iDimerize regulated transcription system (Takara) provides two vectors, pHet-Act1-2 and pZFHD1-Luciferase. […]\nAll transcriptional regulation assays were performed in adherent HEK293 cells cultured in 384-well plates. Cells enzymatically dissociated from a tissue culture flask were counted and plated at 7.5×10^3 cells/well in a 384-well plate. […] On day 3, wells were treated with different concentrations of either A/C heterodimeriser (for the FRB:FKBP12 control), simeprevir or with vehicle control, and 24 hours later luminescence was quantified with an Envision plate reader immediately following addition of SteadyGlo luciferase substrate (Promega) or Nano-Glo Vivazine luciferase substrate (Promega). Alternatively, reverse transfections were carried out on Day 1, addition of dimeriser on Day 2 and luminescence quantified 24 hours later on Day 3. […]"}}}
{"molecule": "B1", "values": [{"measurement": "decrease in affinity for PRSIM_23 compared to ‘Wt’", "setting": "[1]; K136D versus ‘WT’ (S139A)", "result": "6-7 fold"}, {"measurement": "Rmax", "setting": "[1]; K136D, 800 nM simeprevir", "result": 168, "unit": "RUs"}, {"measurement": "ka", "setting": "[1]; K136D, 800 nM simeprevir", "result": "1.69e+10", "unit": "M⁻¹ s⁻¹"}, {"measurement": "kd", "setting": "[1]; K136D, 800 nM simeprevir", "result": 373, "unit": "s⁻¹"}, {"measurement": "decrease in affinity for PRSIM_23 compared to ‘Wt’", "setting": "[2]; K136N versus ‘WT’ (S139A)", "result": "6-7 fold"}, {"measurement": "Rmax", "setting": "[2]; K136N, 40 nM simeprevir", "result": 198, "unit": "RUs"}, {"measurement": "ka", "setting": "[2]; K136N, 40 nM simeprevir", "result": "5.31e+08", "unit": "M⁻¹ s⁻¹"}, {"measurement": "kd", "setting": "[2]; K136N, 40 nM simeprevir", "result": 20.4, "unit": "s⁻¹"}, {"measurement": "Rmax", "setting": "[3]", "result": 199, "unit": "RUs"}, {"measurement": "ka", "setting": "[3]", "result": "1.47e+09", "unit": "M⁻¹ s⁻¹"}, {"measurement": "kd", "setting": "[3]", "result": 21.4, "unit": "s⁻¹"}, {"measurement": "fold change of NanoLuc-PEST expression", "setting": "[4]; one copy of the DBD fusion partner", "result": 55, "unit": "fold"}, {"measurement": "fold change of NanoLuc-PEST expression", "setting": "[4]; three copies of the DBD fusion partner", "result": 100, "unit": "fold"}]}
